Increase of adhesion on substitution of Mg2+ with Mn2+ and adhesion relative to that on II-27 data for 1 substance are collected here from publication PMC3406685.

What all share (test): real-time label-free cell adhesion
Assay [1] has as its target Collagen Toolkit II peptide II-27.
For assay [2], the target named is triple-helical peptide II-27-A (GVOGEA within (GPP)5 hosts).
Assay [3] addresses Collagen Toolkit III peptide III-7.

For “integrin α1β1 on rat pheochromocytoma PC12 cells (from UniProt P18614 29-1180; P49134 21-799) (receptor)”, the increase of adhesion on substitution of Mg2+ with Mn2+ worked out at 65% in assay [1], 13% in assay [2] and 26% in assay [3]. In assay [2], this substance registered an adhesion relative to that on II-27 of 40%.
